Patent US20180094053A1 (XOMA US, published 2018)

Legend:
Recombinant human IL-2 [1] = biological target: T1, Recombinant human IL-2 (human, UniProt P60568 21-153); assay: cell-based or functional assay
Recombinant human IL-2 [2] = biological target: T1, Recombinant human IL-2; assay: SPR (Biacore 4000), IgG captured on anti-human IgG Fc, rhIL-2 0.11-10 nM
Protocol: (§1) Antibody affinities were measured by SPR using the Biacore 4000 with a standard capture methodology. Briefly, anti-human IgG (Fc specific) from an anti-human antibody capture kit (Biacore) was immobilized onto spots 1, 2, 4, and 5 of all four flow cells of a CM-5 sensor chip by amine coupling according to the manufacturer's instructions. Running buffer was HBS-EP+ with 1% BSA. […] Data were analyzed using the Biacore 4000 Evaluation software.

Recombinant human IL-2 [3] = biological target: T1, Recombinant human IL-2; assay: cell-based or functional assay; remark: listed apart in the source
Rabbit IL-2 = biological target: T2, Rabbit IL-2 (rabbit, UniProt O77620 21-153, limits assumed); assay: SPR (Biacore 4000), IgG captured on anti-human IgG Fc, IL-2 30 nM to 1 nM; affinity estimate
T2 sequence (looked up): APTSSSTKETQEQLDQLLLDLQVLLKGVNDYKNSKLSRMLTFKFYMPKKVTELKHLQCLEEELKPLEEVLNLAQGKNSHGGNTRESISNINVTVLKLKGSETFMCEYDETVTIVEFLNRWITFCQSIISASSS
Protocol: as §1
These sequences were imported into vector NTI® (Lifetech) and aligned using the alignx tool.

Recombinant human IL-2 [4] = biological target: T1, Recombinant human IL-2; assay: cell-based or functional assay; remark: listed apart in the source
Recombinant human IL-2 [5] = biological target: T1, Recombinant human IL-2; assay: cell-based or functional assay; remark: listed apart in the source
Recombinant human IL-2 [6] = biological target: T1, Recombinant human IL-2; assay: cell-based or functional assay; remark: listed apart in the source
Rat IL-2 = biological target: T3, Rat IL-2 (rat, UniProt P17108 21-155); assay: SPR (Biacore 4000), IgG captured on anti-human Fc, IL-2 injected
T3 sequence (looked up): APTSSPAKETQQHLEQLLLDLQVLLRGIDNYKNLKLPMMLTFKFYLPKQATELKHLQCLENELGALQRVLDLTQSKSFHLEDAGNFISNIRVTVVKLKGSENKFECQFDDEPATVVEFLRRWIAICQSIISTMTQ

Mouse IL-2 = biological target: T4, Mouse IL-2 (mouse, UniProt P04351 21-169); assay: as above
T4 sequence (looked up): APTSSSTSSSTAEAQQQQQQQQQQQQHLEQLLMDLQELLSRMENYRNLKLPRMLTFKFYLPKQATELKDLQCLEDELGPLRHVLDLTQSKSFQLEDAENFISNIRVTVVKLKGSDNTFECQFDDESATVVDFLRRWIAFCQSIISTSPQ

B1: XPA.92.099 (antibody, V domains shown)
VH: QVQLVESGGGLVKPGRSLRLSCAASGFTFNRYAMSWVRQAPGKGLEWVAMISFDGGNQYYTDSVSGRFTISRDNSKTTLFLQMDSLRTEDTAVYYCVRSPAGDWVAYFDYWGQGTLVTVSS
VL: DIQMTQSPSSLSASIGDRVTIPCQASEDISNHLSWYQQKPGKAPKPLIFDASDLETGVPSRFSGSGSGTDFALTISSLRPDDFATYYCHQYHDYPSYTFGHGTKLEIKR
notes: Tested as purified full-length human IgG; also called mAb99; clone 99
pSTAT5a,b Ratio of EC50s (Rαβγ/Rβγ), murine cells (Recombinant human IL-2 [1]): 17 | pSTAT5a,b fold EC50 shift, CTLL-2 (muRαβγ) (Recombinant human IL-2 [1]): 293 fold | pSTAT5a,b fold EC50 shift, Mouse Primary NK cells (muβγ) (Recombinant human IL-2 [1]): 17 fold | Kd (Recombinant human IL-2 [2]): 0.044 nM | koff (Recombinant human IL-2 [2]): 0.00024 s⁻¹ | kon (Recombinant human IL-2 [2]): 5.5e+06 M⁻¹ s⁻¹ | Fold EC50 shift of IL-2-induced proliferation, CTLL-2 (muRαβγ) (Recombinant human IL-2 [3]): 54 fold | Kd (Rabbit IL-2): 0.09 nM | EC50 of IL-2-induced pSTAT5a,b in CD25-depleted human primary NK cells with 100 nM antibody (Recombinant human IL-2 [4]): 3050 pM | EC50 of IL-2-induced pSTAT5a,b in NK-92 cells with 100 nM antibody (Recombinant human IL-2 [4]): 463 pM | Fold EC50 shift of IL-2-induced proliferation, BaF3/IL-2 HuRβγ (Recombinant human IL-2 [5]): 2.4 fold | Fold EC50 shift of IL-2-induced proliferation, NK92 (huRαβγ) (Recombinant human IL-2 [5]): 22 fold | Ratio (huRαβγ/Rβγ) of fold EC50 shifts, proliferation (Recombinant human IL-2 [5]): 9 | pSTAT5a,b Ratio of EC50s (Rαβγ/Rβγ), human cells (Recombinant human IL-2 [6]): 21 | pSTAT5a,b fold EC50 shift, Human Primary NK cells (huRβγ) (Recombinant human IL-2 [6]): 24 fold | pSTAT5a,b fold EC50 shift, NK92 (huRαβγ) (Recombinant human IL-2 [6]): 495 fold | binding result (Rat IL-2): no binding (tested: IL-2 injected from 30 nM to 1 nM) | binding result (Mouse IL-2): no binding (tested: IL-2 injected from 30 nM to 1 nM)
